These results are taken from patent publication US20250320281A1.

A value given as a limit tells only on which side of the number the result lay.

Common to all, as to test: cell-based or functional assay
Assay [1] has as its target HIV-1 Env of isolate CMU02 (subtype AE) (HIV-1).
Assay [2] addresses HIV-1 Env of isolate MGRM-AE-004 (subtype AE) (HIV-1).
For assay [3], the target named is HIV-1 92RW020 Env (pseudovirus, clade A) (HIV-1).
The target in assay [4] is HIV-1 92RW020 envelope glycoprotein (Env) on pseudovirus (HIV-1).
Assay [5] has as its target HIV-1 APV13 Env (pseudovirus, clade B) (HIV-1).
In assay [6] the target is HIV-1 CMU02 envelope glycoprotein (Env) on pseudovirus (HIV-1).
Assay [7] has as its target HIV-1 Env of isolate 92UG024 (pseudovirus) (HIV-1).
The target in assay [8] is HIV-1 Env of isolate 93TH305 (subtype B pseudovirus) (HIV-1).
The target of assay [9] is HIV-1 Env of isolate 98CN009 (pseudovirus) (HIV-1).
Assay [10] concerns the target HIV-1 Env of isolate CAAN.A2 (subtype B pseudovirus) (HIV-1).
Assay [11] deals with HIV-1 Env of isolate MGRM-C-026 (HIV-1).
Assay [12] addresses HIV-1 Env of isolate MGRM-C-028 (HIV-1).
For assay [13], the target named is HIV-1 Env of isolate MGRM-D-004 (pseudovirus) (HIV-1).
For assay [14], the target named is HIV-1 Env of isolate MGRM-D-024 (pseudovirus) (HIV-1).
In assay [15] the target is HIV-1 Env of isolate MGRM-F1-010 (pseudovirus) (HIV-1).
Assay [16] addresses HIV-1 Env of isolate NL43 (subtype B pseudovirus) (HIV-1).
Assay [17] addresses HIV-1 Env of isolate 92UG024 (HIV-1).
The target of assay [18] is HIV-1 Env of isolate 92UG046 (HIV-1).
The target of assay [19] is HIV-1 Env of isolate 97ZA012 (subtype C) (HIV-1).
The target of assay [20] is HIV-1 Env of isolate APV-17 (HIV-1).
Assay [21] concerns the target HIV-1 Env of isolate MG RM-D-002 (HIV-1).
The target of assay [22] is HIV-1 Env of isolate MG RM-D-011 (HIV-1).
In assay [23] the target is HIV-1 Env of isolate MG RM-D-019 (HIV-1).
Assay [24] has as its target HIV-1 Env of isolate MGRM-A-003 (HIV-1).
Assay [25] deals with HIV-1 Env of isolate MGRM-A-013 (subtype A) (HIV-1).
The target in assay [26] is HIV-1 Env of isolate MGRM-Chronic-B-001 (subtype B) (HIV-1).
The target of assay [27] is HIV-1 Env of isolate MGRM-Chronic-B-008 (subtype B) (HIV-1).
The target of assay [28] is HIV-1 Env of isolate MGRM-Chronic-B-017 (subtype B) (HIV-1).
The target of assay [29] is HIV-1 envelope glycoprotein (Env) of isolate MGRM-C-027 (HIV-1).
The target of assay [30] is HIV-1 Env of isolate 92UG024 (clade D pseudovirus) (HIV-1).
Assay [31] concerns the target HIV-1 Env of isolate 93TH305, clade B, on pseudovirus (HIV-1).
In assay [32] the target is HIV-1 Env of isolate MGRM-D-016 (clade D pseudovirus) (HIV-1).
The target in assay [33] is HIV-1 Env of isolate VLGCA1 (clade A pseudovirus) (HIV-1).
Assay [34] addresses HIV-1 Env of pseudovirus MGRM-AG-001 (clade CRF_AG) (HIV-1).
Assay [35] concerns the target HIV-1 Env of pseudovirus MGRM-Chronic-B-010 (HIV-1).
Assay [36] deals with HIV-1 Env of pseudovirus MGRM-F1-018 (HIV-1).
Assay [37] has as its target HIV-1 IAVI-C18 envelope glycoprotein (Env) on pseudovirus (HIV-1).
Assay [38] addresses HIV-1 IAVI-C3 envelope glycoprotein (Env) on pseudovirus (HIV-1).
In assay [39] the target is HIV-1 envelope glycoprotein (Env) of isolate 94KE105, listed under clade A (HIV-1).

Sequence of 4970_K22 (PGT-144) (antibody) (VH): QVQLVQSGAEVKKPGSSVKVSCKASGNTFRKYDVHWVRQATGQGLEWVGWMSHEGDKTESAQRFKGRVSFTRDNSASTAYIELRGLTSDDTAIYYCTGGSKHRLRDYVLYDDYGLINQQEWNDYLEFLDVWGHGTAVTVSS
Sequence of 4970_K22 (PGT-144) (antibody) (VL): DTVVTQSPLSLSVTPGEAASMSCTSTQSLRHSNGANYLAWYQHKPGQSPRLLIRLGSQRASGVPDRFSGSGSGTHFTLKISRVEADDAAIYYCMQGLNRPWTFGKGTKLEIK
Sequence of 4980_N08 (PGT-143) (antibody) (VH): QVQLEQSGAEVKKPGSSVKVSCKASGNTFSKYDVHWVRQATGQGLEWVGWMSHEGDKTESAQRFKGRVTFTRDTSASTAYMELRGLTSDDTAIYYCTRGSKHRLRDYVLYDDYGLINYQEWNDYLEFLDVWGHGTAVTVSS
Sequence of 4980_N08 (PGT-143) (antibody) (VL): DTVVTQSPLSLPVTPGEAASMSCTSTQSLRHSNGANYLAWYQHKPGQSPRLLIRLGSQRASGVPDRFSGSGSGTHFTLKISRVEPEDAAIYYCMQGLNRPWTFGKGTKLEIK
Sequence of 4993_K13 (PGT-141) (antibody) (VH): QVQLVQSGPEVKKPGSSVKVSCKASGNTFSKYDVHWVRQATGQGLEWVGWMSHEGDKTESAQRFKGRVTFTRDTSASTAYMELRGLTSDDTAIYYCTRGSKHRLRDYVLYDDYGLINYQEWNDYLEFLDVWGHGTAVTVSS
Sequence of 4993_K13 (PGT-141) (antibody) (VL): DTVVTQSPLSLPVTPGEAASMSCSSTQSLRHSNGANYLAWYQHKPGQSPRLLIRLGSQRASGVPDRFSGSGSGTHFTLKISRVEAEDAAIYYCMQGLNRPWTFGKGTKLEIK
Sequence of 4995_E20 (PGT-142) (antibody) (VH): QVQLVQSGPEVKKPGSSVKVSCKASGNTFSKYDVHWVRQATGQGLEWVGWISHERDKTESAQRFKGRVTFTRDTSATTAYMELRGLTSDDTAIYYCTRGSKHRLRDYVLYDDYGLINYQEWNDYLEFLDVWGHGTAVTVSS

In the case of 4970_K22 (PGT-144) (antibody), the IC50 (µg/mL), pseudovirus neutralization in [1] is above 50 µg/mL; in assay [2] it was 0.104 µg/mL.

Turning to 4858_P08 (PGT-123) (antibody), the IC50 neutralization amounted to 3.8 ng/mL in [3] and 0.222 µg/mL in assay [5]. Moreover, the neutralization IC50 in assay [4] is 3.8 ng/mL; in [6], above 10 µg/mL; in assay [11], 1 ng/mL; in [12] it was 0.402 µg/mL. The results for the neutralization IC80 in assay [4] and in [6] were 0.0106 µg/mL and above 10 µg/mL, respectively. The results for the neutralization IC90 in [4] and in [6] were 0.0194 µg/mL and above 10 µg/mL, respectively. The figures for the neutralization IC95 in assay [4] and in assay [6] were 0.0343 µg/mL and above 10 µg/mL, respectively. For the same substance, the IC50, pseudovirus neutralization in assay [7] is above 50 µg/mL; in [9], 0.007 µg/mL; in [13] it was above 50 µg/mL; in assay [14], 0.023 µg/mL; in assay [15], 0.016 µg/mL. The IC50 (µg/mL), pseudovirus neutralization in [8] was 0.008 µg/mL; in [10], 0.015 µg/mL; in assay [16], above 50 µg/mL.

With 5136_H01 (PGT-131) (antibody), the IC50 (µg/mL), pseudovirus neutralization is above 50 µg/mL in [17]; above 50 µg/mL in [18]; above 50 µg/mL in assay [1]; 11.2 µg/mL in [21]; 0.756 µg/mL in assay [22]; above 50 µg/mL in assay [23]. In addition, the IC50 (µg/mL), pseudovirus neutralization in assay [25] was above 50 µg/mL; in assay [2] it was above 50 µg/mL; in [29], 0.065 µg/mL. Further, the IC50 neutralization in assay [19] was 1.81 µg/mL; in [26], above 50 µg/mL; in [27], above 50 µg/mL; in assay [28], above 50 µg/mL. This substance returned a neutralization IC50 in [20] above 50 µg/mL. Further, in assay [24], the IC50 is above 50 µg/mL.

As to 4980_N08 (PGT-143) (antibody), the values for the IC50 (µg/mL), pseudovirus neutralization in assay [1] and in assay [2] were above 50 µg/mL and 0.002 µg/mL, respectively.

On to 5145_B14 (PGT-127) (antibody), for which the IC50, pseudovirus neutralization in assay [7] is above 50 µg/mL; in [9], 0.09 µg/mL; in [13] it was above 50 µg/mL; in assay [14], 1.95 µg/mL; in assay [15], above 50 µg/mL. For the same substance, the IC50 (µg/mL), pseudovirus neutralization was 0.017 µg/mL in assay [8], 0.371 µg/mL in assay [10] and above 50 µg/mL in assay [16]. Besides, the neutralization IC50 in assay [11] is 14 ng/mL; in assay [12] it was 7.57 µg/mL.

For 4995_E20 (PGT-142) (antibody), the IC50 (µg/mL), pseudovirus neutralization was above 50 µg/mL in [1] and 0.001 µg/mL in assay [2].

For the substance 5123_A06 (PGT-125) (antibody), the IC50 neutralization in assay [3] came to 2.8 ng/mL; in assay [5], 0.0128 µg/mL. In addition, the IC50, pseudovirus neutralization in assay [7] was above 50 µg/mL; in assay [9], 0.03 µg/mL; in assay [13], 0.371 µg/mL; in assay [14] it was above 50 µg/mL; in assay [15] it was above 50 µg/mL. Besides, the IC50 (µg/mL), pseudovirus neutralization was 0.008 µg/mL in [8], 5.47 µg/mL in assay [10] and above 50 µg/mL in assay [16]. For the same substance, the neutralization IC50 in assay [11] stood at 5 ng/mL; in [12] it was 14 µg/mL.

In the case of 5141_B17 (PGT-126) (antibody), the IC50 neutralization in assay [3] turned out to be 4.6 ng/mL; in assay [5], 0.012 µg/mL. Also, the IC50, pseudovirus neutralization in assay [4] was 0.0046 µg/mL; in assay [6] it was above 10 µg/mL; in assay [7], above 50 µg/mL; in assay [9], 0.019 µg/mL; in assay [13], above 50 µg/mL; in [14] it was 0.376 µg/mL. For the same substance, the IC50, pseudovirus neutralization in assay [15] is above 50 µg/mL. Besides, the IC80 (pseudovirus neutralization) in assay [4] was 0.0168 µg/mL; in assay [6] it was above 10 µg/mL. For the same substance, the IC90 (pseudovirus neutralization) in assay [4] is 0.0359 µg/mL; in assay [6] it was above 10 µg/mL. Besides, the values for the IC95 (pseudovirus neutralization) in [4] and in [6] were 0.0728 µg/mL and above 10 µg/mL, respectively. Also, the IC50 (µg/mL), pseudovirus neutralization in [8] was 0.013 µg/mL; in [10], 0.273 µg/mL; in assay [16] it was above 50 µg/mL. For the same substance, the neutralization IC50 in assay [11] worked out at 7 ng/mL; in assay [12], 0.196 µg/mL.

4838_L06 (PGT-121) (antibody): the IC50, pseudovirus neutralization in assay [7] was above 50 µg/mL; in assay [9], 0.009 µg/mL; in assay [13], above 50 µg/mL; in assay [14], 0.038 µg/mL; in [15], 0.016 µg/mL. The IC50 (µg/mL), pseudovirus neutralization is 0.007 µg/mL in assay [8], 0.011 µg/mL in [10] and above 50 µg/mL in assay [16]. The neutralization IC50 in assay [11] amounted to 2 ng/mL; in [12], 0.472 µg/mL.

On to VRC01 (antibody), for which the IC50 (µg/mL), pseudovirus neutralization turned out to be 0.515 µg/mL in [1], 0.187 µg/mL in [2], 0.707 µg/mL in assay [11] and 0.319 µg/mL in [12]. Moreover, the figures for the IC50 in assay [22] and in [23] were 0.075 µg/mL and 0.119 µg/mL, respectively.

As for 4993_K13 (PGT-141) (antibody), the IC50 (µg/mL), pseudovirus neutralization in [1] is above 50 µg/mL; in assay [2], 0.001 µg/mL.

Take 1496_C09 (PG9) (TCN-109) (antibody): the IC50 neutralization in [3] came out at 161 ng/mL. For the same substance, the figures for the IC50, pseudovirus neutralization in assay [4], in assay [37] and in [38] were 0.0637 µg/mL, 0.0535 µg/mL and 12.9 µg/mL, respectively. The IC50 (µg/ml), pseudovirus neutralization was found to be 1.91 µg/mL in [30]; 2.08 µg/mL in assay [31]; 0.1 µg/mL in [32]; 0.07 µg/mL in assay [33]; 0.004 µg/mL in assay [35]; 0.03 µg/mL in assay [36]. This substance also came in with an IC50 (µg/ml), pseudovirus neutralization in assay [39] of 29.6 µg/mL. In addition, the IC50 in [34] came out at 8.83 µg/mL.

With 4877_D15 (PGT-122) (antibody), the IC50 neutralization in [3] is 7.2 ng/mL; in assay [5] it was 0.992 µg/mL. Also, the IC50, pseudovirus neutralization in [7] was above 50 µg/mL; in assay [9] it was 0.013 µg/mL; in assay [13] it was above 50 µg/mL; in [14] it was 0.185 µg/mL; in assay [15], 0.024 µg/mL. The IC50 (µg/mL), pseudovirus neutralization in [8] was 0.013 µg/mL; in [10], 0.011 µg/mL; in assay [16] it was above 50 µg/mL. In addition, the neutralization IC50 in [11] was 6 ng/mL; in [12], 2.22 µg/mL.

A word on the IC50: it is the point on the concentration scale where inhibition reaches its midpoint.
